To fix the notation:
B1: glmS ribozyme (parent)
chain: AUAAAAGCGCCAGAACUACAGAAAUGUAGUUGACGAGGAGGAGGUUUAUCGAAUUUUCGGCGGAUGCCUCCAAA

± gives the standard error. Fewer inactive variants are shown than the library holds.

What all share (details): with glucosamine-6-phosphate
The variants in data set [1] derive from B1. Put plainly: self-cleavage kobs at 40 uM GlcN6P; higher = faster cleavage; RNA array. The method in brief: (§1)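 Glucosamine-6-phosphate (40 μM to 10 mM) in HEPES/KCl/Mg(OAc)2 buffer was flowed over sequenced MiSeq chips, and tiles were imaged over ~14 h. Barcoded ribozyme variants there had been transcribed in situ by E. coli RNA polymerase and were tracked through a hybridised Cy3 probe at 37 °C. One- or two-exponential decay fits to per-tile medians, normalised to baseline and to non-cleaving reference variants, gave kobs. kcat and KM came from weighted Michaelis–Menten fits across concentrations.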

The variants in data set [2] derive from B1. Kind of data set: self-cleavage kobs at 160 uM GlcN6P; higher = faster cleavage; RNA array. The method in brief:
as §1

Variants of B1 are the subject of data set [3]. Put plainly: self-cleavage kobs at 2500 uM GlcN6P; higher = faster cleavage; RNA array. The method, boiled down: as §1
The variants in data set [4] derive from B1. Put plainly: self-cleavage kobs at 640 uM GlcN6P; higher = faster cleavage; RNA array. The method, boiled down:
as §1

In data set [5] the parent is B1. Put plainly: self-cleavage kobs at 10000 uM GlcN6P; higher = faster cleavage; RNA array. The method, boiled down:
as §1

In the case of A36C G62A, the “self-cleavage kobs at 40 uM GlcN6P” value with glucosamine-6-phosphate [1] is under 1e-05 s⁻¹. In the data set with glucosamine-6-phosphate [2], the “self-cleavage kobs at 160 uM GlcN6P” value is under 1e-05 s⁻¹. Further, the “self-cleavage kobs at 2500 uM GlcN6P” value with glucosamine-6-phosphate [3] was under 1e-05 s⁻¹.

For A14G A53G C58U U65C C71U, the “self-cleavage kobs at 40 uM GlcN6P” value in the data set with glucosamine-6-phosphate [1] is under 1e-05 s⁻¹.

Turning to G7C C67U, the “self-cleavage kobs at 40 uM GlcN6P” value in the data set with glucosamine-6-phosphate [1] was under 1e-05 s⁻¹. Besides, the “self-cleavage kobs at 160 uM GlcN6P” value in the data set with glucosamine-6-phosphate [2] is under 1e-05 s⁻¹. Further, in the data set with glucosamine-6-phosphate [4], the “self-cleavage kobs at 640 uM GlcN6P” value is under 1e-05 s⁻¹. Also, the “self-cleavage kobs at 2500 uM GlcN6P” value with glucosamine-6-phosphate [3] is under 1e-05 s⁻¹. In addition, the “self-cleavage kobs at 10000 uM GlcN6P” value with glucosamine-6-phosphate [5] is under 1e-05 s⁻¹.

Consider A48C C71A, for which the “self-cleavage kobs at 40 uM GlcN6P” value with glucosamine-6-phosphate [1] is under 1e-05 s⁻¹. In the data set with glucosamine-6-phosphate [2], the “self-cleavage kobs at 160 uM GlcN6P” value is under 1e-05 s⁻¹. Moreover, the “self-cleavage kobs at 2500 uM GlcN6P” value with glucosamine-6-phosphate [3] was found to be 3.84e-05 ± 1.4e-05 s⁻¹. Besides, the “self-cleavage kobs at 10000 uM GlcN6P” value with glucosamine-6-phosphate [5] came to 4.23e-05 ± 1e-05 s⁻¹.

For U31A C67A, the “self-cleavage kobs at 40 uM GlcN6P” value in the data set with glucosamine-6-phosphate [1] was 0.000109 ± 1.4e-05 s⁻¹. Also, the “self-cleavage kobs at 160 uM GlcN6P” value with glucosamine-6-phosphate [2] is 0.000473 ± 8.4e-05 s⁻¹. Also, in the data set with glucosamine-6-phosphate [4], the “self-cleavage kobs at 640 uM GlcN6P” value was 0.000764 ± 0.00012 s⁻¹. Further, in the data set with glucosamine-6-phosphate [5], the “self-cleavage kobs at 10000 uM GlcN6P” value was 0.00388 ± 0.00061 s⁻¹.

Regarding C11G G35C, in the data set with glucosamine-6-phosphate [1], the “self-cleavage kobs at 40 uM GlcN6P” value was under 1e-05 s⁻¹. Besides, the “self-cleavage kobs at 160 uM GlcN6P” value with glucosamine-6-phosphate [2] is under 1e-05 s⁻¹. The “self-cleavage kobs at 640 uM GlcN6P” value with glucosamine-6-phosphate [4] is under 1e-05 s⁻¹. In addition, the “self-cleavage kobs at 2500 uM GlcN6P” value with glucosamine-6-phosphate [3] was under 1e-05 s⁻¹. Moreover, the “self-cleavage kobs at 10000 uM GlcN6P” value with glucosamine-6-phosphate [5] was under 1e-05 s⁻¹.

A15C U30G A39U: in the data set with glucosamine-6-phosphate [1], the “self-cleavage kobs at 40 uM GlcN6P” value stood at 0.00162 ± 0.00029 s⁻¹. Also, in the data set with glucosamine-6-phosphate [5], the “self-cleavage kobs at 10000 uM GlcN6P” value stood at 0.0346 ± 0.013 s⁻¹.

Regarding A42G U49C, the “self-cleavage kobs at 40 uM GlcN6P” value with glucosamine-6-phosphate [1] was under 1e-05 s⁻¹. In the data set with glucosamine-6-phosphate [2], the “self-cleavage kobs at 160 uM GlcN6P” value is under 1e-05 s⁻¹. For the same variant, in the data set with glucosamine-6-phosphate [4], the “self-cleavage kobs at 640 uM GlcN6P” value was under 1e-05 s⁻¹. Besides, the “self-cleavage kobs at 2500 uM GlcN6P” value with glucosamine-6-phosphate [3] is under 1e-05 s⁻¹. The “self-cleavage kobs at 10000 uM GlcN6P” value in the data set with glucosamine-6-phosphate [5] was under 1e-05 s⁻¹.

With C10A G62U, in the data set with glucosamine-6-phosphate [1], the “self-cleavage kobs at 40 uM GlcN6P” value is under 1e-05 s⁻¹. Further, the “self-cleavage kobs at 160 uM GlcN6P” value with glucosamine-6-phosphate [2] is under 1e-05 s⁻¹. Also, in the data set with glucosamine-6-phosphate [5], the “self-cleavage kobs at 10000 uM GlcN6P” value was under 1e-05 s⁻¹.

On to C8G U55C C61U, for which the “self-cleavage kobs at 40 uM GlcN6P” value in the data set with glucosamine-6-phosphate [1] is under 1e-05 s⁻¹. In addition, the “self-cleavage kobs at 640 uM GlcN6P” value with glucosamine-6-phosphate [4] was under 1e-05 s⁻¹. Further, the “self-cleavage kobs at 2500 uM GlcN6P” value in the data set with glucosamine-6-phosphate [3] is under 1e-05 s⁻¹.

Regarding G37U G40A, the “self-cleavage kobs at 40 uM GlcN6P” value with glucosamine-6-phosphate [1] was under 1e-05 s⁻¹. In the data set with glucosamine-6-phosphate [2], the “self-cleavage kobs at 160 uM GlcN6P” value is under 1e-05 s⁻¹. Also, the “self-cleavage kobs at 640 uM GlcN6P” value in the data set with glucosamine-6-phosphate [4] is under 1e-05 s⁻¹. Besides, the “self-cleavage kobs at 2500 uM GlcN6P” value in the data set with glucosamine-6-phosphate [3] is under 1e-05 s⁻¹. Besides, in the data set with glucosamine-6-phosphate [5], the “self-cleavage kobs at 10000 uM GlcN6P” value is under 1e-05 s⁻¹.

In the case of G35U G37C G40U U56A U65A, the “self-cleavage kobs at 40 uM GlcN6P” value with glucosamine-6-phosphate [1] was under 1e-05 s⁻¹.

In the case of G13U U31C A33C A48C A52C U56G, the “self-cleavage kobs at 40 uM GlcN6P” value with glucosamine-6-phosphate [1] is under 1e-05 s⁻¹.

For G35U G66U, in the data set with glucosamine-6-phosphate [1], the “self-cleavage kobs at 40 uM GlcN6P” value was under 1e-05 s⁻¹. Moreover, the “self-cleavage kobs at 160 uM GlcN6P” value in the data set with glucosamine-6-phosphate [2] is under 1e-05 s⁻¹. In the data set with glucosamine-6-phosphate [4], the “self-cleavage kobs at 640 uM GlcN6P” value is under 1e-05 s⁻¹. The “self-cleavage kobs at 2500 uM GlcN6P” value with glucosamine-6-phosphate [3] is under 1e-05 s⁻¹. In the data set with glucosamine-6-phosphate [5], the “self-cleavage kobs at 10000 uM GlcN6P” value was under 1e-05 s⁻¹.

Consider U30A G35A, for which the “self-cleavage kobs at 40 uM GlcN6P” value in the data set with glucosamine-6-phosphate [1] was under 1e-05 s⁻¹. Further, the “self-cleavage kobs at 160 uM GlcN6P” value with glucosamine-6-phosphate [2] is under 1e-05 s⁻¹. Also, the “self-cleavage kobs at 640 uM GlcN6P” value in the data set with glucosamine-6-phosphate [4] was under 1e-05 s⁻¹. In the data set with glucosamine-6-phosphate [3], the “self-cleavage kobs at 2500 uM GlcN6P” value is under 1e-05 s⁻¹. The “self-cleavage kobs at 10000 uM GlcN6P” value with glucosamine-6-phosphate [5] is under 1e-05 s⁻¹.

Turning to A52G G63C, the “self-cleavage kobs at 40 uM GlcN6P” value in the data set with glucosamine-6-phosphate [1] was under 1e-05 s⁻¹.

In the case of G13A U30C A42U, the “self-cleavage kobs at 40 uM GlcN6P” value with glucosamine-6-phosphate [1] is under 1e-05 s⁻¹. The “self-cleavage kobs at 10000 uM GlcN6P” value in the data set with glucosamine-6-phosphate [5] is under 1e-05 s⁻¹.

G7A C11U U30A: the “self-cleavage kobs at 40 uM GlcN6P” value in the data set with glucosamine-6-phosphate [1] was under 1e-05 s⁻¹.

G29C U31C G37A C67A: the “self-cleavage kobs at 40 uM GlcN6P” value with glucosamine-6-phosphate [1] was under 1e-05 s⁻¹. Moreover, in the data set with glucosamine-6-phosphate [3], the “self-cleavage kobs at 2500 uM GlcN6P” value is under 1e-05 s⁻¹. Besides, in the data set with glucosamine-6-phosphate [5], the “self-cleavage kobs at 10000 uM GlcN6P” value is under 1e-05 s⁻¹.

As for C8U U55C, the “self-cleavage kobs at 40 uM GlcN6P” value with glucosamine-6-phosphate [1] is under 1e-05 s⁻¹. In addition, in the data set with glucosamine-6-phosphate [4], the “self-cleavage kobs at 640 uM GlcN6P” value is under 1e-05 s⁻¹. Further, in the data set with glucosamine-6-phosphate [3], the “self-cleavage kobs at 2500 uM GlcN6P” value was under 1e-05 s⁻¹. Besides, the “self-cleavage kobs at 10000 uM GlcN6P” value in the data set with glucosamine-6-phosphate [5] is under 1e-05 s⁻¹.

Consider C8A G62U, for which the “self-cleavage kobs at 40 uM GlcN6P” value with glucosamine-6-phosphate [1] is under 1e-05 s⁻¹. The “self-cleavage kobs at 160 uM GlcN6P” value with glucosamine-6-phosphate [2] is under 1e-05 s⁻¹. In addition, in the data set with glucosamine-6-phosphate [5], the “self-cleavage kobs at 10000 uM GlcN6P” value came out at 5.53e-05 ± 1.6e-05 s⁻¹.
